The target in assay [1] is T1, human CD33 on U937 cells (endogenous) (human, UniProt P20138 18-364).
T1 construct: whole, on cells
In words: FACS, U937 cells. The procedure: The desired cells were expanded to a logarithmic growth phase in a T-75 cell culture flask. For adherent cells CHO-K1, the culture medium was removed by pipetting, and the cells were washed twice with a PBS buffer, digested with trypsin, and washed twice with a PBS buffer again after the digestion was stopped. For suspension cells U937, the medium supernatant was discarded by direct centrifugation, and the cell pellet was washed twice with PBS, and then incubated with a buffer containing human Fc Block (purchased from BD, Cat. No. 564220) for 15 min. After the cells obtained in the last step were subjected to cell counting, the cell pellet was resuspended to 2×10⁶ cells/mL with a blocking solution [PBS+2% (w/w) BSA] and added to a 96-well FACS reaction plate at 50 μL/well. The VHH-Fc antibody (a sample to be tested) was added at 50 μL/well, and the plate was incubated on ice for 2 h. […] After the plate was centrifuged and washed 5 times with a PBS buffer, the results were assayed and analyzed by FACS (FACS Canto™, purchased from BD Biosciences), so as to obtain the mean fluorescence intensity (MFI) of cells. Then, analysis was performed by software (GraphPad Prism8), data were fitted, and EC50 values were calculated.

Assay [2] has as its target T2, monkey CD33-His protein (monkey).
T2 construct: also called monkey CD33 protein
In words: ELISA on coated monkey CD33-his.

Assay [3] addresses T3, human CD33-His (extracellular domain Asp 18-His 259) (human, UniProt P20138 18-259).
T3 construct: range 18-259; bought protein; also called hCD33-his; human CD33 protein; not shown: His tag
In words: competitive ELISA vs coated S006-NB147-225 2ug/mL; soluble 25ug/ml. The procedure:
VHH antibodies and control antibodies with known epitopes were subjected to epitope classification with competitive ELISA. ELISA plates were coated with 2 μg/mL antibodies according to the method in Example 5.1; the human CD33-his protein was subjected to a gradient dilution from 30 μg/mL, and EC80 values (Tables 26-27) were calculated. ELISA plates were coated with 2 μg/mL antibodies; after 25 µg/mL of antibodies to be tested were added, a human CD33-his protein having an EC80 concentration corresponding to each of the antibodies to be tested was then added for incubation for 2 h. The plates were washed 5 times with PBS, then HRP-labeled anti-His antibodies (purchased from GenScript, Cat. No. A00612) were added for incubation for 1 h, and the plates were washed 5 times. A TMB substrate was added at 50 μL/well and incubated at room temperature for 10 min, then a stop solution (1.0 M HCl) was added at 50 μL/well. OD_{450 nm} values were read using an ELISA plate reader (Insight, purchased from PerkinElmer), and the competition rate between the antibodies was calculated according to the OD_{450 nm} values using a formula. The results are shown in FIGS. 12A-12B, the higher the value of the competition rate, the closer the epitopes to which two antibodies bind.
A general note: An ELISA detects its analyte on a solid surface through an enzyme-linked reagent.

Assay [4] has as its target T2, monkey CD33-His protein. Description: ELISA on coated monkey CD33-his. The source holds these as a separate data set.
For another assay, the target named is T4, human CD33-C2-his (human, UniProt P20138 136-260).
T4 construct: expressed in HEK293E; also called hCD33-C2-his; human CD33 protein C2-domain; not shown: His tag
T4 sequence (P20138 other isoform, or with tags, fused parts or gaps limits assumed): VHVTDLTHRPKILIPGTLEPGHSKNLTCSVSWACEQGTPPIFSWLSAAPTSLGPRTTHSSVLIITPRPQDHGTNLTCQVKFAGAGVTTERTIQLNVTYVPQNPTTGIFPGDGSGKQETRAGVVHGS
Description: ELISA on coated human CD33-C2-his.

The next assay concerns the target T5, human CD33-V-his (human, UniProt P20138 18-144).
T5 construct: expressed in HEK293E; also called hCD33-V-his; human CD33 protein V-domain; not shown: His tag
Description: ELISA on coated human CD33-V-his.

Assay [5] has as its target T6, human CD33-his protein (human, UniProt P20138 18-259).
T6 construct: range 18-259; bought protein; also called hCD33-his; recombinant human CD33-his; not shown: His tag
Description: competition ELISA, coated human CD33-his, vs Biotin-C33B904 at EC80; antibody 31.25 nM. The procedure: (§1) The plate was sealed with a plastic film and incubated at 4° C. overnight, washed twice with PBS the next day, and a blocking solution [PBS+2% (w/w) BSA] was added for blocking at room temperature for 2 h. The blocking solution was discarded, and VHH-Fc antibody or negative control antibody serially diluted from 100 nM was added at 50 μL/well. After incubation at 37° C. for 2 h, the plate was washed 3 times with PBS. A secondary antibody labeled with HRP (horseradish peroxidase) (purchased from Sigma, Cat. No. A0170) was added. After incubation for 1 h at 37° C., the plate was washed 5 times with PBS. A TMB substrate was added at 50 μL/well. After incubation at room temperature for 10 min, a stop solution (1.0 N HCl) was added at 50 μL/well. The OD450 nm values were read on an ELISA plate reader (Multimode Plate Reader, EnSight, purchased from Perkin Elmer). The assay results for the binding of the VHH-Fc to hCD33-his by ELISA are shown in FIGS. 7A and 7B and Tables 11 and 12. […] The IgG control was hIgG1, and the data in the table are OD450 nm values.
(§2) ELISA plates were coated with 2 μg/mL human CD33-his protein according to the method in Example 5.1; the Biotin-C331B904 antibody was subjected to a gradient dilution from 15 μg/mL, and EC80 values (0.18 μg/mL) were calculated. […] OD_{450 nm} values were read using an ELISA plate reader (Insight, purchased from PerkinElmer). […]

Assay [6] concerns the target T6, human CD33-his protein. In words: competition ELISA, coated human CD33-his, vs Biotin-C33B904 at EC80; antibody 1.95 nM. On the procedure:
as §1, §2

Where two headings read alike, the source gives them in different places.

T1 sequence (P20138 18-364): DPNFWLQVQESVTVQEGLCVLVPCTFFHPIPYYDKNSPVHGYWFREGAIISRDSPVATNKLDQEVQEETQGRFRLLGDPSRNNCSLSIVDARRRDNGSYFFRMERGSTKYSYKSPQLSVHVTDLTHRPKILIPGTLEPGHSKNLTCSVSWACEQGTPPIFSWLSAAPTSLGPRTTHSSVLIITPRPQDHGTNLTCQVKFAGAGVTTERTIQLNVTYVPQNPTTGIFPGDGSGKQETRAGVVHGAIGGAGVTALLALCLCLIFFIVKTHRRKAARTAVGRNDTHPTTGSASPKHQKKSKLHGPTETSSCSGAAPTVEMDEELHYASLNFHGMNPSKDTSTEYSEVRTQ
T6 sequence (P20138 18-259 limits assumed): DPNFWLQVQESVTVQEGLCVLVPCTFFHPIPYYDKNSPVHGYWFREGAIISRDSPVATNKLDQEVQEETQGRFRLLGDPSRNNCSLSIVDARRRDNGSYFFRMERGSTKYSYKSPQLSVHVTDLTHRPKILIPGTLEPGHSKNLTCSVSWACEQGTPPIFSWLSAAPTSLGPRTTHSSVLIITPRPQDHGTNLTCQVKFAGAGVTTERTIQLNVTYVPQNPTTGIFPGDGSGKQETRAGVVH
T5 sequence (P20138 other isoform, or with tags, fused parts or gaps limits assumed): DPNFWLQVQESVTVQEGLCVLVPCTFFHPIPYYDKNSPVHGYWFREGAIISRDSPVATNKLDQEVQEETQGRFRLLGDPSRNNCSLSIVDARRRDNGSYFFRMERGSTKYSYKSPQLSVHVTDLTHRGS
T3 sequence (P20138 18-259 limits assumed): as the sequence (P20138 18-259 limits assumed) above

B1: C33B904 hIgG1 (antibody, V domains shown)
VH: EVQLVESGGGLVQPGRSLRLSCAASGFTFDDYAMHWVRQAPGKGLEWVSGIGWSGGSIVYADSVKGRFTISRDNAKNSLYLQMNSLRAEDTALYYCAKDSPYGDFFDYWGQGTLVTVSS
VL: DIVMTQSPDSLAVSLGERATINCKSSQTVFYSSNNKNYLAWYQQKPGQPPKLLISWASTRKSGVPDRFSGSGSGTDFTLTVSSLQAEDVAVYYCQHYYSTPYTFGQGTKLEIKR
notes: intact human IgG1; variable regions from US20190382481A1; also called C33B3904; C331B904
Turning to B1, the 50% effective concentration (EC50) in assay [1] is 12600 pM. Moreover, in assay [1], the “Max MFI” value came out at 682 MFI. For the same molecule, the 50% effective concentration (EC50 (read off the curve)) with monkey CD33-His protein [2] is around 200 pM; with monkey CD33-His protein [4], around 300 pM; in the assay with human CD33-C2-his, around 300 pM. This molecule displayed an inhibition rate in assay [3] of 96%. Besides, the binding result with human CD33-V-his was “no binding (tested: 100 nM)”.

B2: C33B904 (antibody, human IgG1, kappa, V domains shown)
VH: EVQLVESGGGLVQPGRSLRLSCAASGFTFDDYAMHWVRQAPGKGLEWVSGIGWSGGSIVYADSVKGRFTISRDNAKNSLYLQMNSLRAEDTALYYCAKDSPYGDFFDYWGQGTLVTVSS
VL: DIVMTQSPDSLAVSLGERATINCKSSQTVFYSSNNKNYLAWYQQKPGQPPKLLISWASTRKSGVPDRFSGSGSGTDFTLTVSSLQAEDVAVYYCQHYYSTPYTFGQGTKLEIKR
notes: control antibody, intact human IgG1 form; variable regions from US20190382481A1; also called C33B904 hIgG1; C331B904
On to B2, for which the entries for the “OD450 (Biotin-C33B904 signal)” value with human CD33-his protein [5] and with human CD33-his protein [6] were 0.46 and 2.43, respectively.

Usually EC50 stands for the concentration that produces a half-maximal response. As a reminder, the EC50 (read off the curve) is the midpoint of the concentration-response curve.

The values are drawn from patent US20240124575A1 (SIMCERE ZAIMING PHARMACEUTICAL, published 2024).
